Data reported in the DeepSol protein solubility set.

Experiment: soluble on expression in E. coli; label from the status in PepcDB or PDB records

Q: For “MSLSSMLPSISPELARIAPGFRALSINVIAAPVRDAQVGEIALKEACQAVINGQPAWAQAHIDAWNAVFKAFGAKPKRTPCSAEALRKRVLKDGTMAALDPVVDLYNAVSLRYAVPVGGENSAAYCGSPRLVFADGSETFDTLKEGKPVTESPEPGEVIWRDDRGVTCRRWNWRQGVRTRLSASDKMMWFILESLPEMPVDELYAAENMLTDGLEKMMPGLRFESTLIGVEGHHHHHH”, which “soluble on expression in E. coli” value is on record?
A: The value was “not soluble”.

Q: With “MSLSSRNSTPLRQFGYEFFMTPLDVSKLVLPVSENYKLGPGDEVIIYIVGLPSNQEIPPVIKTIVDREGNISIPNLGVFNVWGLTLKETEELLRQELGLDLKVTVGEIRTFVIYVAGEVNRPGTHVATAVNTVIDALSIAGGVKKTGSLRNIILTRKTPSGLKTYNIDLYDVFIKGKPIDLTLRDGDTILVKPIGPTVAIAGEVKRPAIYEIKGGETIKDLIELAGGLLPSSYQYKVILQRYENGKLRIIEDSLTNKAFMNENLRDGDLVLIKKSADIPENSYSIEGYVTLPGVYEYKEGLKLSDILNPDLFFKDTNLKFAVLVRQYPKGSIPKYIAFSPEKVLTGKEDMELKPYDRLIFFKLGQSEGHHHHHH” as the sequence, how does the “soluble on expression in E. coli” value read?
A: Its value is “soluble”.

Q: For “MSLSSRYTPSEMAQALGAGLLSFPVTHFDADMAFDEPAYRSNLDWLSSHPAAGLFAAGGTGELFSLTLDEVDRAVRAAVTQTAGRMPVIAPAGYGTAIAVAMAQAAERNDADGILLFPPYLTECDADGVAEHVERVCKATSLGVIVYGRANARLDDVALARVAERCPNLVGYKDGIGDVERMTRIYARLGDRLLYVGGLPTAETFALPYLEMGVTTYSSAIFNFLPEWALSFYAAVRARDHATIYRELNDFVLPYTVLRNRRAGYAVSIVKAGMRAVGRPAGPVRTPLADLTEDEFAQLTQLIGGRREGHHHHHH”, which “soluble on expression in E. coli” value is on record?
A: Its value is “not soluble”.

Q: For “MSLSTEPLASRMRPKNIDEIISQQHLVGPKGIIRRMVDTKRLSSMIFYGPPGIGKTSIAKAISGSTQFKFRQLNAVTNTKKDMQLIVEEAKMSGQVILLLDEIHRLDKAKQDFLLPHLENGKIVLIGATTSNPYHAINPAIRSRAQIFELYPLDQDDIRLALDRAINDKERGLSTYHPIVDEDAIEYFSTQSQGDVRSALNALELAVLSAHIGEENERHITLDDAKDCLQKGAFVSDKDGDMHYDVMSAFQKSIRGSDVNAALHYLARLIEAGDLPTIVRRLLVISYEDVGLASPNAGQRTLAAIQSAERLGFPEARIPLSQAVIELCLSPKSNSGITAIDKALGDIRNGHIGQIPDYLKDGHYSGAKKLGRAIGYKYPHNYENGHVVQQYLPEKLKNRVYYEPKTTSKSEQQFKTIYDNLRNKEGHHHHHH”, which “soluble on expression in E. coli” value is on record?
A: The value was “not soluble”.

Q: For “MSLSTIKDIARVAGVSVATVSRVVNNDPKVKEKTKLKVTKVMLDLNYTPNANARALVTQKNTTIGVIIPSLTDPFFASLANGVEQVARQQSMQLLLSTGLVSAESERQAINLLRERRCDVMVVHSKKLTDDELIALSEQIPGLVLIDRHIEQISHRCVWLDNLEGGKIAARHLLALNHQKFASISSKYQIEDPGLRLEGFTRELTGAGFAIDKELIEYGEPNLQGGEIATQHLLSSGKTFSALFVYNDAMAIGAISTLEDNGYRVPQDISVIGFDDVLLSRYSRPKLSTLNYPIEEMAQQAANLAIELTKERKAAKDEYKVESKTHKYVPRLVKRESTSLEGHHHHHH”, which “soluble on expression in E. coli” value is on record?
A: The value was “soluble”.

Q: With “MSLSVNDRDTSALRYFDFKDDEFVKPSPTEFNSWINREIVTKHHPHHNGYDEIYTKNQPQVIEGDFLYGDVRVKLANEWVSIYEYSLDSSSPSWNKIGRAVTDTNGHIKYNIPNNMKLSYGMHLIKLYVEGDGTSANMYIQVLDNTKKYVVFDMDGTLTTTDFEDVKQYAGEFFNSNYVAKMYPDVDNVVKYYASKGYGILYLTARPYWLSEESQTWLWKNGFPMGLLHTYTGGDVLLGEEAESFKAGYLNQLKSQGIEFDYGFGNEKTDVEAYSNIGIAKSNIFTIGKNRGIDGSVSIVSYTDYLKQLSGNEGHHHHHH” as the sequence, how does the “soluble on expression in E. coli” value read?
A: Its value is “soluble”.

Q: For “MSLSWRLQTGSEKAELQELNARLYDYVCRVRELERENLLLEEELRSRLSREDRWAEDQALYAEEARSLRQQLDELNWSTALAEGERDALRRELLELQREGVEAGTARSRLDAELGAQRRELEEALGARAALEALLGRLETERRDLDAAHERQVRDLRARAASLTMHFRARATSPAAPPPRLRDVHDSYALLVAESWRESVQLYEDEVRELEQALRRGQESRLQAEDEARLCAQEADALRNQALELEQLRARLEDELLRMREEYGMQAEERQRVIDSLEDEKEALTLAMADRLRDYQELLQVKTGLSLEVATYRALLEGESNPEILIWTENIENVPQEPRNTSYRYTNSVLQRKNEKNLFPRREGHHHHHH”, which “soluble on expression in E. coli” value is on record?
A: Its value is “not soluble”.

Q: Which “soluble on expression in E. coli” value does the source give for “MSLSYRAHGLPVLENLLEQDFSASGPNQKWAGDITYLRTDEGWLYLAVVIDLWSRAVIGWSMSPRMTAQLACDALQMALWRRRRPESVIVHTDRGGQYCSGDYQALLKRHNLRGSMSAKGYCYDNACVESFFHSLKVECIHGERFSSREIMRATVFNYIECDYNRWRRHSACGGLSPEQFENHNLAEGHHHHHH” here?
A: Its value is “not soluble”.

Q: With “MSLSYSNILVAVAVTPESQQLLAKAVSIARPVKGHISLITLASDPEMYNQLAAPMLEDLRNVMQEETQSFLDKLIQDAGYPVDKTFIAYGELSEHILEVCRKHHFDLVICGNHNHSFFSRASCSAKRVITSSEVDVLLVPLTGDEGHHHHHH” as the sequence, how does the “soluble on expression in E. coli” value read?
A: The value was “soluble”.

Q: For “MSLTAPRLRILSVEVRERMMPFVRPFRFGPSVVEAAPQAFVRIELEVEGAGRAVGQAAEMMMPRWFDKAPHKSPEQTVDDLRRVLLHAAALYADAPWSTAYGLSADAAAMQLGWAEGRGIPALAAHFGPALLDKAVVDALLRALSLTFPEGLSRNVMGLDARNARDLSPEQIPALLASLTPVPAVAVRHTIGLLDPLEGPHGLSAEIAAARLRFFKIKIGGDLAADLDRLAAITALLTHLAPDFRATLDANEQYDPERLCQLAAGLDTPALRPLKARLLYIEQPFDRTETFTRPLPPALDGIPVIIDEADGGLDAFPRAIALGYRGVSSKACKGLYKSILNAVRVQAGEGTFLTAEDLTCQPGLGLQQDLALVATLGLTHGERNGHHYVAGFGPAPEEEAGAFAAAHPDLYRLTDAGAALDVSRGVLATASLLSAPGFAGRAEPDWASLAPVTEGHHHHHH”, which “soluble on expression in E. coli” value is on record?
A: Its value is “not soluble”.

Q: Which “soluble on expression in E. coli” value does the source give for “MSLTAPRTPGTPRTPRTEHLVLPGVLTAAEAAATVRGILAVQREDGAIPWFRGHHLDPWDHVEAAMALDTADEHEAAERAYAWLARHQNQDGSWYAAYADGDFADVTDRGRETNFVAYVAVGVWHHYLATGDDLFLERMWPVVHAAVEFVLRLQQPGGQIGWRRGDDGTDTTDALLTGSSSVHHALRCALAIAEQREEPQPDWELAAGALRHAIRRHPERFLDKGRYSMDWYYPVLGGALTGTEARSRIQESWDRFVVPGLGVRCVVPNPWVTGGESAELALALWAVGESDHALEILQSIQHLRDPDSGLYWTGYVFEDETVWPRELTAWTAGSLLLAVAALGGHEATCQVFAGERLPRGLDPDCCVEGHHHHHH” here?
A: Its value is “soluble”.

Q: With “MSLTCGSGFGGRAFSCISACGPRPGRCCITAAPYRGISCYRGLTGGFGSHSVCGGFRAGSCGRSFGYRSGGVCGPSPPCITTVSVNESLLTPLNLEIDPNAQCVKQEEKEQIKSLNSRFAAFIDKVRFLEQQNKLLETKLQFYQNRECCQSNMEPLFEGYIETLRREAECVEADSGRLASELNHVQEVLEGYKKKYEEEVSLRATAENEFVALKKDVDCAYLRKSDLEANVEALIQEIDFLRRLYEEEIRILQSHISDTSVVVKLDNSRDLNMDCIIAEIKAQYDDIVTRSRAEAESWYRSKCEEMKATVIRHGETLRRTKEEINELNRMIQRLTAEVENAKCQNSKLEAAVAQSEQQGEAALSDARCKLAELEGALQKAKQDMACLIREYQEVMNSKLGLDIEIATYRRLLEGEEQRLCEGIGAVNVCVSSSRGGVVCGDLCVSGSRPVTGSVCSAPCNGNVAVSTGLCAPCGQLNTTCGGGSCGVGSCGISSLGVGSCGSSCRKCEGHHHHHH” as the sequence, how does the “soluble on expression in E. coli” value read?
A: The value was “not soluble”.
